Consider 4 molecules from patent US20120264231A1, “ASSAY FOR ORAI CALCIUM CHANNEL REGULATORS” (IMMUNE DISEASE INSTITUTE, INC., priority 2009, published 2012).

The target in one data set is ORAI1 (Homo sapiens, UniProt Q96D31). The experiment in a line: Fura-2 Ca^2+ flux assay, sec6-4 secretory vesicles with ORAI1. The class given is biochemical. On the set-up: the ORAI functional fragment is ORAI1 (65-301), ORAI1 (65-87), or full length ORAI1; made in house; host or cells: S. cerevisiae NY17 (sec6-4), isolated secretory vesicles, vector pBEVY-GU. How it is done:
It was next asked whether STIM-ORAI protein-protein interaction is sufficient to open the ORAI Ca^2+ channel. Vesicles obtained from S cerevisiae expressing ORAI were incubated under conditions where Fura-2 was the principal Ca^2+ buffer in the extravesicular solution in order to monitor Ca^2+ efflux (Meyer, T., et al., Biochemistry 29, 32-37 (1990)).
Vesicles carrying ORAI 1 were isolated from S cerevisiae strain NY1 7 according to a standard protocol (Coury, L. A., et al., Methods Enzymol 306, 169-186 (1999); Nakamoto, R. K., et al., J Biol Chem 266, 7940-7949 (1991)). Efflux of Ca^2+ elicited by STIM1^CT fragments was detected by suspending the vesicles in a buffer containing Fura-2 as principal Ca^2+ buffer, and monitoring the Fura-2 fluorescence excitation spectrum (Meyer, T., et al., Biochemistry 29, 32-37 (1990)). As a complementary approach, ORAI 1 was coexpressed with a Ca^2+ sensor cameleon D3 cpV or cameleon D4 cpV53 that was targeted to the vesicles, and changes in intravesicular [Ca^2+] were detected as changes in FRET between CFP and YFP of the sensor.
S cerevisiae strain NY17 featuring the temperature-sensitive sec6-4 mutation was used for protein expression and purification of secretory vesicles as described (Nakamoto, R. K., et al., J Biol Chem 266, 7940-7949 (1991); Coury, L. A., et al., Methods Enzymol 306, 169-186 (1999)). Cells were grown to midlog phase at 25° C. in uracil-deficient synthetic complete medium containing glucose, which was subsequently exchanged for galactose to induce transgene expression over a period of 8 hours. The temperature was then switched to 37° C. for 3 hours to force intracellular accumulation of secretory vesicles. Cells were collected by centrifugation at 4,000×g for 5 min at 4° C., washed once in ice-cold water, resuspended at a concentration of 50-60 OD600 units/mL in 10 mM DTT, 100 mM Tris pH 9.4, and shaken gently at room temperature for 10 min. Cells were pelleted and resuspended at 50-60 OD600 units/mL in spheroplast buffer (1.4 M sorbitol, 50 mM K2HPO4 pH 7.5, 10 mM NaN3, 40 mM β-mercaptoethanol) containing Zymolyase 20T (50 units per g of yeast wet weight) and incubated for up to 1 h at 37° C. Spheroplasts were harvested at 3,000×g for 5 min at 4° C., resuspended in spheroplast buffer containing 10 mM MgCl2 and 1 mg/ml Concanavalin A at a density corresponding to 50 OD600 units/mL of the starting culture, and gently shaken at 4° C. for 15 min. […] Myc-tagged ORAI1 was detected in Western blots using the murine anti-Myc monoclonal antibody 9E10. […]

The nature of the next data set: CD thermal unfolding. The class given is physicochemical. Conditions: CD signal at 222 nm, 20 μM protein, pH 7.5. How it is done: CD spectra of STIM 1^CT fragments were recorded in a Jasco-810 spectropolarimeter at 25° C. using a 1-mm path length quartz cell with the protein concentration at 20 μM in 10 mM Tris-HCl, 150 mM KCl, 1 mM DTT at pH 7.5. All spectra were obtained as the average of at least ten scans with a scan rate of 50 nm/min. The ellipticity was measured from 190 to 260 nm and converted to mean residue molar ellipticity (deg cm^2 dmol^−1 res^−1). The calculation of secondary structure elements was performed by using DICHROWEB, an online server for protein secondary structure analyses (Whitmore, L. & Wallace, B. A. Nucleic Acids Res 32, W668-W673 (2004)). Thermal unfolding measurements were performed using a 1 mm quartz cell with a protein concentration of 20 μM in the same buffer. To obtain the thermal transition point, the signal changes at 222 nm were fitted using the equation: ΔS=ΔSmax/[…]), where ΔS and ΔSmax are the signal changes at each data point and at the final data point, Tm and T are the transition temperature and experimental temperature, respectively, and k represents the transition rate.

Where [1] appears, read: STIM 1 cytoplasmic fragments 2 μM.

Chain of ORAI1 (Q96D31 2-301): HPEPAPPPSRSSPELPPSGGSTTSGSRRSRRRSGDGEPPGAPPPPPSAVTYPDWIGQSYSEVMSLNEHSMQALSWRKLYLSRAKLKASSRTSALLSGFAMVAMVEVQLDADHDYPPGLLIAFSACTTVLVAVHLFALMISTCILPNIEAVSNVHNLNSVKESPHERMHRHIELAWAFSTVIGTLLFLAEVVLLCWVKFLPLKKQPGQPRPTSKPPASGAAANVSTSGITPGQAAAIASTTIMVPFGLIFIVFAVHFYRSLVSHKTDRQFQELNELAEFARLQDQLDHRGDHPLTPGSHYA

For the molecule `C[C@H](CCC(=O)O)C[C@H](C)C[C@H](C)C(=O)/C=C(\O)[C@H](C)C[C@H](C)C/C=C/[C@@H](C)[C@@H](O)[C@@H](C)[C@@H](O)C[C@@H]1CC[C@@](C)([C@H]2CC[C@@](C)([C@@H](C)O)O2)O1` [ionomycin, reference compound], the “Ca^2+ efflux from vesicles with ORAI (Fura-2 excitation spectrum)” value (“Ca^2+ efflux from vesicles with ORAI” below) at ORAI1 (ionomycin 20 μM) was “release of Ca^2+ to the extravesicular solution”. Consider “STIM1 (233-463): truncated mouse STIM1 cytoplasmic fragment, residues 233-463, His-tagged recombinant protein”, for which the “Tm (thermal unfolding)” value in the data set “CD thermal unfolding” worked out at 43.8±0.2 °C. Besides, the “Ca^2+ efflux from vesicles with ORAI” value with ORAI1 (setting [1]) is recorded as “had little effect”. As for “STIM1 (233-498): truncated mouse STIM1 cytoplasmic fragment, residues 233-498, His-tagged recombinant protein”, the “Tm (thermal unfolding)” value in the data set “CD thermal unfolding” stood at 48.5±0.4 °C. Also, the “Ca^2+ efflux from vesicles with ORAI” value with ORAI1 (setting [1]) is recorded as “elicited efflux of Ca^2+”. The matching figures for “STIM1^CT: cytoplasmic region of STIM1, mouse residues 233-685, His-tagged recombinant protein expressed in E coli”: 47.0±0.3 °C and “elicited efflux of Ca^2+”.
